Experiments:
[1] = target: phosphorylated SNAP-ADAP fusion protein (ADAP amino acids 570-690) (human) (UniProt O15117); test: MST; SH2 proteins (only partly purified) serially diluted in 1x PBS with 1.75% (v/v) E. coli extract; fluorescent ADAP at 12 nM; 5 min at RT; Monolith NT.115
[2] = target: site-specifically biotinylated Fyn SH2 domain (UniProt P06241); test: supernatant depletion assay (pull-down titration); biotinylated SH2 domains on streptavidin-coated DynaBeads, washed once and serially diluted in 1x PBS; ADAP at 8 nM (PBS with 0.1% E. coli extract), 10 min at RT; unbound ADAP in the supernatant read by in-gel fluorescence; Kd estimated from the plot
site-specifically biotinylated Fyn SH2 domain, sequence (P06241 149-246): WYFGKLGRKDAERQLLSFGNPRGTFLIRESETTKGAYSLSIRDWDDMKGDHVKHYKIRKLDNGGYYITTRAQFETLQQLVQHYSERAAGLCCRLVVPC

phosphorylated SNAP-ADAP fusion protein (ADAP amino acids 570-690) (human), sequence (O15117 570-690): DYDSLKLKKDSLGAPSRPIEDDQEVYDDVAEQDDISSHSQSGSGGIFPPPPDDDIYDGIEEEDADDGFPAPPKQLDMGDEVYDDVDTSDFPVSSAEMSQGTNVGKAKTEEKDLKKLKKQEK

Fyn SH2 domain without biotin (for MST) (from UniProt P06241 149-246) (domain or fragment)
Kd [1]: 1 µM

Src SH2 domain without biotin (for MST) (from UniProt P12931 151-248) (domain or fragment)
Kd [1]: 1 µM

phosphorylated SNAP-ADAP fusion protein (ADAP amino acids 570-690) (from UniProt O15117 570-690) (domain or fragment)
Kd [2]: 0.3 µM

Reference: paper PMC3858276
